Measured values reported in US20050019758A1.

How the values were obtained:
Assay in all cases: cell-based or functional assay
[1] = molecular target: F protein of RSV clinical isolate A3-7062 (Respiratory Syncytial Virus)
[2] = molecular target: F protein of RS 9320 (prototype B1) (Respiratory Syncytial Virus)
[3] = molecular target: F protein of RSV clinical isolate B3-447 (Respiratory Syncytial Virus)
[4] = molecular target: F protein of RSV clinical isolate A2-626 (Respiratory Syncytial Virus)
[5] = molecular target: F protein of RSV clinical isolate A1-V1763 (Respiratory Syncytial Virus)
[6] = molecular target: F protein of RS Long strain virus (native form, on virus and infected VERO cells) (Respiratory Syncytial Virus) (UniProt P12568)
[7] = molecular target: F protein of RSV clinical isolate B1-6973 (Respiratory Syncytial Virus)
[8] = molecular target: F protein of RSV clinical isolate A4-6652 (Respiratory Syncytial Virus)
[9] = molecular target: F protein of RSV clinical isolate B2-6556 (Respiratory Syncytial Virus)
[10] = molecular target: F protein of RSV clinical isolate A2-847 (Respiratory Syncytial Virus)

Chain of F protein of RS Long strain virus (native form, on virus and infected VERO cells) (Respiratory Syncytial Virus) (P12568 26-574): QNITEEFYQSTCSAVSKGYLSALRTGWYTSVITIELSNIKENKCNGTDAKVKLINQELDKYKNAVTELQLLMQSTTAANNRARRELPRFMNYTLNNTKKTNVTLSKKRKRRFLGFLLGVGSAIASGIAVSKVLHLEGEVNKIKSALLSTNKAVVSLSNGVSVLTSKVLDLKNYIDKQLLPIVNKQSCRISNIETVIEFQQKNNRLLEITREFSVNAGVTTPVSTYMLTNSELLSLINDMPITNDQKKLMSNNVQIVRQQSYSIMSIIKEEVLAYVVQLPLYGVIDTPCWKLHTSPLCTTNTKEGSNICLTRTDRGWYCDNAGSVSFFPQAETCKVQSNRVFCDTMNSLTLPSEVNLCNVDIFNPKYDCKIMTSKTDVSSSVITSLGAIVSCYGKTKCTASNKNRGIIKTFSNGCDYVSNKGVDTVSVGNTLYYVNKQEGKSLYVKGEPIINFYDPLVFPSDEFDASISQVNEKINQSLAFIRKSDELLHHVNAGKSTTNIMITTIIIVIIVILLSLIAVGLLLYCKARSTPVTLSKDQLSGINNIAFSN

SB 209763 (antibody)
Fusion-Inhibition Titer EC50 [1]: 1.67 µg/mL | Fusion-Inhibition Titer EC50 [2]: 2.5 µg/mL | Fusion-Inhibition Titer EC50 [3]: 1.7 µg/mL | Fusion-Inhibition Titer EC50 [4]: 0.36 µg/mL | Fusion-Inhibition Titer EC50 [5]: 1.95 µg/mL | Fusion-Inhibition Titer EC50 [6]: 1.3 µg/mL | Fusion-Inhibition Titer EC50 [7]: 2.22 µg/mL | Fusion-Inhibition Titer EC50 [8]: 1.52 µg/mL | Fusion-Inhibition Titer EC50 [9]: 2.05 µg/mL | Fusion-Inhibition Titer EC50 [10]: 0.27 µg/mL
